Assay [1] has as its target T1, VLCAD (Homo sapiens, UniProt P49748).
T1 construct: 10x His (N); made in house; host or cells: E. coli BL21(DE3), pET19b
T1 sequence (P49748 40-655): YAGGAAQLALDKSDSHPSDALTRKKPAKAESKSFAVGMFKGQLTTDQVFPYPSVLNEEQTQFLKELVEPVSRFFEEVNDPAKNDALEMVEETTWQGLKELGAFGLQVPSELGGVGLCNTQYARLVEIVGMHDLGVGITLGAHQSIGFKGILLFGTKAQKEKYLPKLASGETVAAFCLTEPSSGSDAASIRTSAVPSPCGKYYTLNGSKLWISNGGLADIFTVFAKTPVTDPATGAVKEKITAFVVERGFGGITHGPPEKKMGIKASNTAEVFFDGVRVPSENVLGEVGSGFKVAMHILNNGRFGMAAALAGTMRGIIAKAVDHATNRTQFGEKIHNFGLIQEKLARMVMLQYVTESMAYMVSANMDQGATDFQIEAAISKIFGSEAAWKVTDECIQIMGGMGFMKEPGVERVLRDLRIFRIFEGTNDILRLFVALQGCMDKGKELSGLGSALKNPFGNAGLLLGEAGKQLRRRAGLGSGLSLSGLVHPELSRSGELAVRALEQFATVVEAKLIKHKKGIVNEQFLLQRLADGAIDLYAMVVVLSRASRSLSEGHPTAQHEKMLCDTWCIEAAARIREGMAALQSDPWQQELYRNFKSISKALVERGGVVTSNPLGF
Briefly: Biolayer interferometry. In kind it is binding. The conditions noted are these: Biotin-PEG peptide immobilized on streptavidin sensors. The procedure:
(§1) To measure the direct binding interaction, ^19F NMR binding studies were conducted using fluorinated analogs of MCL-1 SAHBD. […] Both SAHBs, however, bind MCL-1ΔNΔC, as illustrated by a chemical shift of the peptide NMR peak in both cases (FIG. 15). […] To perform these experiments, N-terminal Btn-PEG analogs of the peptides were immobilized onto streptavidin probes that were then placed into protein solutions at a variety of concentrations to measure ligand-target association.
VLCAD. Mature human VLCAD lacking its cleavable leader sequence (aa 40-655) (NP_000009.1) was subcloned into the pET19b vector (Novagen) using NdeI and XhoI restriction sites. Correct insertion was confirmed by DNA sequencing. The 10× His-tagged VLCAD construct was expressed in BL21(DE3) E. coli, and once cells reached an OD of 0.8 after growing at 37° C., they were induced with 0.5 mM […] (IPTG) (Gold Biotechnology I2481C) at 37° C. for 4 hours. Bacterial pellets were resuspended in lysis buffer (500 mM NaCl, 50 mM HEPES, 5% glycerol, pH 7.5, complete protease inhibitor tablet) and lysed by microfluidization (M-110L; Microfluidics). […]
BLI binding measurements were performed using an Octet Red384 System (ForteBio). […] Binding parameters were calculated using the accompanying Octet Software version 9 (ForteBio).

Assay [2] has as its target T2, MCL-1ΔNΔC (Homo sapiens, UniProt Q07820).
T2 construct: The MCL-1ΔNΔC construct was grown and expressed in E. coli as previously described; made in house; host or cells: E. coli BL21(DE3)
Put plainly: 19F NMR binding study with fluorinated SAHB. The conditions noted are these: fluorinated SAHB 25 μM, MCL-1ΔNΔC 0-45 μM. The procedure:
as §1
MCL-1ΔNΔC. The MCL-1ΔNΔC construct was grown and expressed in E. coli as previously described (see, e.g., Stewart, Nat Chem Biol., 6(6):595-601 (2010)). Transformed BL21(DE3) E. coli were grown at 37° C. to an OD of 0.8, after which they were induced with 0.5 mM IPTG. […]
(§2) To determine binding of SAHBs to VLCAD, fluorinated SAHB (25 μM) and VLCAD (0-125 μM) were mixed together in VLCAD FPLC buffer including 10% D2O to a final volume of 500 μL. […] The extent to which VLCAD bound the peptide was determined by measuring the peak width at half height (ν1/2) of the peptide ^19F signal. […] MCL-1ΔNΔC binding to SAHBs causes a change in the ^19F chemical shift of the peptide resulting in two peptide signals (instead of peak broadening), so extent of binding was quantified by measuring the peak height of “unbound” peptide relative to the bound peptide signal.

For assay [3], the target named is T1, VLCAD. Put plainly: 19F NMR binding study with fluorinated SAHB. The conditions noted are these: fluorinated SAHB 25 μM, VLCAD 0-125 μM. The procedure:
as §1
VLCAD. Mature human VLCAD lacking its cleavable leader sequence (aa 40-655) (NP_000009.1) was subcloned into the pET19b vector (Novagen) using NdeI and XhoI restriction sites. Correct insertion was confirmed by DNA sequencing. […]
as §2

In assay [4] the target is T2, MCL-1ΔNΔC. Briefly: Biolayer interferometry. The assay is classed as binding. The note with it: Biotin-PEG peptide immobilized on streptavidin sensors. For orientation: BLI is a label-free optical method that tracks binding on a fibre tip over time.
The test system of another assay is endogenous MCL-1. Put plainly: Biotinylated SAHB pulldown from MEF lysates, anti-MCL-1 Western analysis. The assay is classed as binding, mouse. The conditions noted are these: wild-type MEF lysates, 15 nmol biotinylated SAHB. How it is done: An exploratory proteomics analysis was conducted to identify proteins that interact with the MCL-1 BH3 domain helix. An extensive library of MCL-1 stapled BH3 peptides (FIG. 2) was generated to both identify novel protein interactors by mass spectrometry and then deploy the stapled peptide constructs as novel probes to dissect and pharmacologically modulate the identified protein interactors and associated signaling pathways. As an example, an N-terminally biotinylated stapled peptide designed based on the sequence of MCL-1's BH3 domain (Btn-MCL-1 SAHBD), or vehicle, was incubated with wild-type mouse embryonic fibroblast (MEF) lysates, followed by high stringency streptavidin capture. To validate the proteomics workflow and ensure that Btn-MCL-1 SAHBD could, in fact, engage protein interactors in a lysate, eluates were first run on a gel for anti-MCL-1 Western analysis. […] For mass spectrometry (MS) analysis, eluates were run on a reducing/denaturing gel followed by Coomassie staining (FIG. 4) and in-gel digestion was performed before injection on the instrument.
The binding determinants for the MCL-1 BH3/VLCAD interaction were investigated by generating a series of biotinylated MCL-1 SAHBD alanine point mutants (FIG. 18A) and performing streptavidin pull-downs from MEF lysates, followed by VLCAD and MCL-1 western analysis of the resulting eluates. […] Native alanines and residues not mutated are colored white.
Wild-type MEFs were trypsinized, washed once with cold PBS, and lysed on ice with NP-40 lysis buffer (50 mM Tris, pH 7.4, 150 mM NaCl, 0.5% (v/v) NP-40, complete protease inhibitor pellet (Roche)) using 1 ml of lysis buffer for every 10 million cells lysed. Cellular debris was pelleted at 14,000 g for 10 min at 4° C., and the supernatant was quantified using the BCA Protein Assay Kit (Thermo Fisher Scientific). 2 mg of lysate per pulldown were then exposed to 50 μL of pre-equilibrated High Capacity Streptavidin Agarose beads (Thermo Fisher Scientific). […] The beads were then pelleted and washed with NP-40 lysis buffer three times before eluting the protein sample from the beads by heating at 70° C. for 10 min in SDS loading buffer. Samples were then subjected to electrophoresis and either Western analysis or Coomassie stain (SimplyBlue Safe Stain, Thermo Fisher Scientific). […] Coomassie stained gels were then processed for proteomics analysis (see below). Biotinylated SAHB pulldowns of recombinant protein were performed as above incubating 5 nmol of SAHB with 10 pmol of rVLCAD in 500 μL total volume. Densitometry analyses were performed using ImageJ software.

The target of assay [5] is T1, VLCAD. Put plainly: Biotinylated SAHB pulldown of recombinant protein. The assay is classed as binding. The conditions noted are these: 5 nmol SAHB with 10 pmol rVLCAD. An excerpt:
To validate the MS result, the pulldowns were repeated and eluates run on a gel for anti-VLCAD Western blot analysis. […] All peptides faithfully recapitulated native BH3-binding propensities for endogenous MCL-1 protein (FIG. 8). The eluates were then probed for the other members of the acyl-CoA dehydrogenase family that manifest shorter fatty acid substrate specificities. MCL-1 SAHBD was able to pull down VLCAD, but not MCAD or SCAD (FIG. 9). Because the traditional MCL-1 staple location differs from that of the BIM, BID, and BAD SAHBs, it was important to confirm that the observed VLCAD binding specificity was due to BH3 sequence selectivity, not staple position. A BIM SAHB with the traditional MCL-1 staple (BIM SAHBF), and a MCL-1 stapled peptide with the traditional BIM staple (MCL-1 SAHBA), were generated. […]
Wild-type MEFs were trypsinized, washed once with cold PBS, and lysed on ice with NP-40 lysis buffer (50 mM Tris, pH 7.4, 150 mM NaCl, 0.5% (v/v) NP-40, complete protease inhibitor pellet (Roche)) using 1 ml of lysis buffer for every 10 million cells lysed. Cellular debris was pelleted at 14,000 g for 10 min at 4° C., and the supernatant was quantified using the BCA Protein Assay Kit (Thermo Fisher Scientific). […]

Bridge positions count the residues as written; N and C are the ends. Square brackets hold non-standard residues; d marks the D form. Ends that are not written are not given here. * marks the point of attachment. Biotin = O=C1N[C@H]2[C@H](CS[C@H]2CCCCC(=O)*)N1; S5 = C=CCCC[C@](C)(N)C(=O)O

T2 sequence (Q07820 172-320 limits assumed, stated change not applied): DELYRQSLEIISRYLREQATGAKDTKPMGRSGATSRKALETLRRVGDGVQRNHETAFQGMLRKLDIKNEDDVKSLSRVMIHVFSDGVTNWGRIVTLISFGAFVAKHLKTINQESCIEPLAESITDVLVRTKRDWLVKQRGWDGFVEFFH
Chain of endogenous MCL-1 (P97287 152-308 limits assumed): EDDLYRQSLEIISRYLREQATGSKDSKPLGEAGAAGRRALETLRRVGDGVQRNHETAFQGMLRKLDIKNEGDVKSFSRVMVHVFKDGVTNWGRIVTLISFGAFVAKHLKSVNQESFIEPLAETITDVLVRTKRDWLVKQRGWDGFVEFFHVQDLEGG

With “MCL-1 SAHBB: MCL-1 SAHB containing a different staple position (RKAL[S5]TLR[S5]VGDGVQRNHETAF; staple 5-9)”, the “biolayer interferometry association with VLCAD” value in the assay with VLCAD [1] is reported as “no detectable binding interaction”. Further, the “19F NMR binding to MCL-1ΔNΔC (chemical shift of the peptide peak)” value with MCL-1ΔNΔC [2] is given as “binds directly”. The “19F NMR peptide peak broadening on VLCAD titration” value with VLCAD [3] was “little to no peak broadening”. Moreover, the “biolayer interferometry association with MCL-1” value in the assay with MCL-1ΔNΔC [4] is given as “bind to MCL-1”.
“Btn-MCL-1 SAHBD: N-terminally biotinylated stapled peptide designed based on the sequence of MCL-1's BH3 domain (Biotin-RKALETLRRVGDGV[S5]RNH[S5]TAF; staple 15-19)”: the “pull down of endogenous MCL-1 from cellular lysates” value in the assay with endogenous MCL-1 is “readily identified in the eluates”. For the same substance, the “pull down of recombinant VLCAD” value in the assay with VLCAD [5] is recorded as “pulled down recombinant VLCAD”.

The record behind these values is patent US12366576B2, “Compositions, assays, and methods for direct modulation of fatty acid metabolism” (Dana-Farber Cancer Institute, Inc., priority 2016, dated 2025).
